Measurements taken from JPH11332563A.

Biological target: ヒト可溶性CD4 (human soluble CD4 prepared in Example 2, C-terminal FLAG-tag, from COS7 cells) (human) (UniProt P01730)
Assay: SPR (BIAcore 2000), antibody amine-coupled on CM5, soluble CD4 as analyte

Kd: 7.58 nM
koff: 0.000138 s⁻¹
kon: 18200 M⁻¹ s⁻¹
Substance: 13B8.2抗体 (イムノテック社) (antibody)
